Our source for the percent co-depleted with Flag-DNAJC5 values is paper PMC5838229.

This assay concerns the target Flag-DNAJC5 (secreted) (UniProt Q9H3Z4). In words: co-IP; conditioned medium of cells expressing Flag-DNAJC5 and HA-GFP1-10; Flag beads against control Sepharose beads; precipitated and unbound fractions analysed by immunoblotting. For orientation: In western blotting, separated proteins are transferred to a membrane and probed.
UniProt Q9H3Z4, sequence (Q9H3Z4 whole entry): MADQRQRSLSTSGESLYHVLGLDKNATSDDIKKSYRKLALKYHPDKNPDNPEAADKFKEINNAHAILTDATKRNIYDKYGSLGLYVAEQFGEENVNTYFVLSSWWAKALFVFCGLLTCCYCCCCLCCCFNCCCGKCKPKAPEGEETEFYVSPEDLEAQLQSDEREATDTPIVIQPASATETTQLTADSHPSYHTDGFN

Consider “HA-GFP1-10 (secreted) (domain or fragment)”, for which the percent co-depleted with Flag-DNAJC5 was greater than 60%.
